Key:
[1] = substrate: CC1(C)CNc2nc(N)[nH]c(=O)c2N1; experiment: Phenylalanine hydroxylase cofactor assay (cofactor consumption and tyrosine formation); type: biochemical, Rat; settings: other: 1 mM phenylalanine, atmospheric oxygen, 0.1 M Tris·HCl, pH 7.4, 27°C
Description: (§1) The 6,6-dimethyl substituted tetrahydropterin was tested for cofactor activity in a standard phenylalanine hydroxylase assay in which both cofactor consumption and tyrosine formation were monitored. […] An apparent Michaelis constant was determined at 1 mM phenylalanine and atmospheric oxygen with concentrations of 6,6-Me₂PH₄ ranging from 0.02-0.3 mM. The effect of a second methyl at the 6-position slightly increases the affinity for phenylalanine hydroxylase, since the apparent Km was two-thirds to three-quarters that of 6-methyl and 6,7-dimethyltetrahydropterin (Table IV). […] The maximum velocity of the reaction with 6,6-Me₂PH₄ is similar to that with the 6,7-dimethyl compound and about 6 times slower than with the natural cofactor (Table IV).

[2] = substrate: CC1CNc2nc(N)[nH]c(=O)c2N1; experiment: as above; type: biochemical, Rat; settings: other: 1 mM phenylalanine, atmospheric oxygen, 0.1 M Tris·HCl, pH 7.4, 27°C
Description: as §1

[3] = substrate: CC1(C)CNC2=NC(N)=NC(=O)C2=N1; experiment: Quinoid dihydropterin as substrate for dihydropteridine reductase (beef liver); type: biochemical
Description: Substrate Properties of Quinoid-6,6-dimethyldihydropterin for Dihydropteridine Reductase: 6,6-Dimethyltetrahydropterin was oxidized by three different procedures to produce q-6,6-Me₂PH₂ to be tested as a substrate for dihydropteridine reductase. • (i) Chemical synthesis. […] The q-6,6-Me₂PH₂ was dissolved in 0.1 M Tris·HCl, pH 7.4 immediately before use to make a 10 mM stock solution, which was kept on ice. To test for substrate activity a small volume (<50 µl) was added to a cuvette containing 0.1 M Tris·HCl, pH 7.4, which had been temperature equilibrated to 27°, and the absorbance at 340 nm was measured. • (ii) Oxidation by peroxidase and H₂O₂. Peroxidase (6 units/ml final volume) was temperature equilibrated in 0.1 M Tris·HCl, pH 7.4, at 27° for 5 minutes. H₂O₂ (1.2 mM final concentration) was then added, followed by 6,6-Me₂PH₄. Conversion to q-6,6-Me₂PH₂, monitored at 340 nm, was complete within a few seconds. • (iii) Generation by phenylalanine hydroxylase: Phenylalanine hydroxylase (0.6 units/ml), catalase (2500 units/ml), and phenylalanine (3 mM final concentration) were temperature equilibrated at 27° in 0.1 M Tris·HCl, pH 7.4. At 5 minutes, 6,6-Me₂PH₄ was introduced and monitored at 340 nm. Conversion of 6,6-Me₂PH₄ to quinoid dihydropterin was complete in 1-7 minutes, depending on the concentration. To each of the above solutions containing q-6,6-Me₂PH₂, NADH (final concentration 0.1 mM) as added, and the background rate recorded for 1 minute. Reaction was then initiated with dihydropteridine reductase (0.01 units/ml). Rates were calculated from the enzyme dependent decrease in O.D. at 340 nm, using an extinction coefficient of 9.8 for the chemically synthesized substrate and 6.2 for the peroxidase- and phenylalanine-hydroxylase-containing reactions in which the pterin is maintained in the quinoid form. Due to the high concentrations of q-6,6-Me₂PH₂ required to obtain an accurate Km, cuvettes of 0.5 cm light path were used.

[4] = substrate: CC1(c2ccccc2)CNC2=NC(N)=NC(=O)C2=N1; experiment: as above; type: biochemical; settings: other: substrate produced by Peroxidase + H2O2; pH 7.4; 27.0 °C
[5] = substrate: CC1=Nc2c(O)nc(N)nc2NC1; experiment: as above; type: biochemical; settings: other: substrate produced by Peroxidase + H2O2; pH 7.4; 27.0 °C
[6] = substrate: CC1(C)CNC2=NC(N)=NC(=O)C2=N1; experiment: Quinoid dihydropterin as substrate for dihydropteridine reductase (sheep liver); type: biochemical
Description: The quinoid was generated from 6,6-Me₂PH₄, as outlined previously. […] Peroxidase (6 units/ml final volume) was temperature equilibrated in 0.1 M Tris·HCl, pH 7.4, at 27° for 5 minutes. H₂O₂ (1.2 mM final concentration) was then added, followed by 6,6-Me₂PH₄. Conversion to q-6,6-Me₂PH₂, monitored at 340 nm, was complete within a few seconds. • (iii) Generation by phenylalanine hydroxylase: […] At 5 minutes, 6,6-Me₂PH₄ was introduced and monitored at 340 nm. Conversion of 6,6-Me₂PH₄ to quinoid dihydropterin was complete in 1-7 minutes, depending on the concentration. […] Reaction was then initiated with dihydropteridine reductase (0.01 units/ml). Rates were calculated from the enzyme dependent decrease in O.D. at 340 nm, using an extinction coefficient of 9.8 for the chemically synthesized substrate and 6.2 for the peroxidase- and phenylalanine-hydroxylase-containing reactions in which the pterin is maintained in the quinoid form. […] This Km was obtained regardless of the method of generation of the quinoid dihydropterin. The Vmax's were also the same for the dihydropteridine reductase catalyzed reduction of quinoid generated by any of the three methods (Table VI). Thus, the quinoid products of each procedure appear to behave equally.

[7] = other: substrate produced by Bromine oxidation, 0.1 M Tris·HCl, pH 7.4, 27°C
[8] = other: substrate produced by Phe hydroxylase + phe, pH 7.4, 27.0 °C

B1: Rat Liver Phenylalanine Hydroxylase (Rattus norvegicus) (protein)
chain: MAAVVLENGVLSRKLSDFGQETSYIEDNSNQNGAISLIFSLKEEVGALAKVLRLFEENDINLTHIESRPSRLNKDEYEFFTYLDKRTKPVLGSIIKSLRNDIGATVHELSRDKEKNTVPWFPRTIQELDRFANQILSYGAELDADHPGFKDPVYRARRKQFADIAYNYRHGQPIPRVEYTEEEKQTWGTVFRTLKALYKTHACYEHNHIFPLLEKYCGFREDNIPQLEDVSQFLQTCTGFRLRPVAGLLSSRDFLGGLAFRVFHCTQYIRHGSKPMYTPEPDICHELLGHVPLFSDRSFAQFSQEIGLASLGAPDEYIEKLATIYWFTVEFGLCKEGDSIKAYGAGLLSSFGELQYCLSDKPKLLPLELEKTACQEYSVTEFQPLYYVAESFSDAKEKVRTFAATIPRPFSVRYDPYTQRVEVLDNTQQLKILADSINSEVGILCNALQKIKS
notes: Cofactor for Rat Liver Phenylalanine Hydroxylase; from tissue; host or cells: rat liver
[1]
  Km: 66 ± 10 µM
[2]
  Km: 100 ± 20 µM

B2: Beef Liver Dihydropteridine Reductase (Bos taurus) (protein)
chain: MAAAAGEARRVLVYGGRGALGSRCVQAFRARNWWVASIDVQENEEASANVVVKMTDSFTEQADQVTAEVGKLLGTEKVDAILCVAGGWAGGNAKSKSLFKNCDLMWKQSVWTSTISSHLATKHLKEGGLLTLAGARAALDGTPGMIGYGMAKAAVHQLCQSLAGKSSGLPPGAAAVALLPVTLDTPVNRKSMPEADFSSWTPLEFLVETFHDWITEKNRPSSGSLIQVVTTEGKTELTAASP
notes: from tissue; host or cells: beef liver
[3]; [7]
  Km: 400 µM
[3]; other: substrate produced by Peroxidase + H2O2, pH 7.4, 27.0 °C
  Km: 400 µM
[3]; [8]
  Km: 400 µM
[4]
  Km: 70 µM
[5]
  Km: 30 µM

B3: Sheep Liver Dihydropteridine Reductase (Ovis aries) (protein)
chain: WVASIDVQENEEASANVVVKMTDSFTEQADQVTAEVGELLGTEKVDAILCVAGGWAGGNAKSKSLFKNCDLMWKQSVWTSTISSHLATKHLKEGGLLTLAGARAALDGTPGMIGYGMAKAAVHQLCRSLAGKNSGLPPGAAAVALLPVTLDTPVNRKSMPEADFSSWTPLEFLVETFHDWITEKNRPSSGSLIQVVTTEGKTELTTASL
[6]; [7]
  Km: 400 µM
[6]; [8]
  Km: 400 µM
